These results are taken from patent publication US20240376151A1, “STAPLED PEPTIDES AND METHODS THEREOF” (FOG PHARMACEUTICALS, INC., priority 2022, published 2024).

Numbered stars: 1 amine (or outer) side, 2 acyl side, 3 side chain; on linkers, the order of the positions; unused ones are H or OH. Bridge positions count the residues as written; N and C are the ends. Ends that are not written are not given here. Phenylene(1,4-NHCOCH2)2 = O=C(C[*:1])Nc1ccc(NC(=O)C[*:2])cc1

One experiment deals with T1, WWP2^HECT (Homo sapiens, UniProt O00308).
T1 construct: GST-TEV (N, cleaved yes); made in house; host or cells: Escherichia coli BL21 (DE3)
In words: Naive Library Presenter Screening (phage, NGS), WWP2^HECT. The format is binding. To be noted: for interaction data at Target Concentration 10: WWP2 target concentration 10 nM; for interaction data at Target Concentration 30: WWP2 target concentration 30 nM; for interaction data at Target Concentration 100: WWP2 target concentration 100 nM; for interaction data at Target Concentration 300: WWP2 target concentration 300 nM; for interaction data at Target Concentration 1000: WWP2 target concentration 1000 nM.

Another experiment has as its target CDK2 (Homo sapiens, UniProt P24941). In words: Phage Library Screening with NGS, CDK2. In kind it is binding. The arrangement: Full length CDK2 (residues 1-298) with an N-terminal GST-3C-6×his-TEV tag; GST-3C-6×his-TEV (N, cleaved yes); made in house; host or cells: Sf9 (Bac-to-Bac baculovirus). To be noted: for phage screen counts, Target Concentration 10: CDK2, target concentration 10; for phage screen counts, Target Concentration 30: CDK2, target concentration 30; for phage screen counts, Target Concentration 100: CDK2, target concentration 100; for phage screen counts, Target Concentration 300: CDK2, target concentration 300.

[1] abbreviates: CDK2, target concentration 1000, first column.
[2] abbreviates: CDK2, target concentration 1000, second column.

T1 sequence (O00308 492-865): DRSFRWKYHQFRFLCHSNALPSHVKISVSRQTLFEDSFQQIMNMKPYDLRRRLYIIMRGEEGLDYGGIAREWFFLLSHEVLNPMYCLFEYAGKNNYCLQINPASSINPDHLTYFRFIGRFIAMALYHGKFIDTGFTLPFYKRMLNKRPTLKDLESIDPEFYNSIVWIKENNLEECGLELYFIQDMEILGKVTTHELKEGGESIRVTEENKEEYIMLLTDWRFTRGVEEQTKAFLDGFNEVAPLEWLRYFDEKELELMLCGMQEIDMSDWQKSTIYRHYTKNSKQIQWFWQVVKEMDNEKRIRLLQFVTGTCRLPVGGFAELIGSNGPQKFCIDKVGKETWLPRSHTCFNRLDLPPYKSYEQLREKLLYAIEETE

“DPATWDCIWAAERCWRY (linker 7-14 via Phenylene(1,4-NHCOCH2)2 (inferred); not fully specified (C-terminus))”: in the experiment with WWP2^HECT, the “interaction data at Target Concentration 10” value came to 0, the “interaction data at Target Concentration 30” value came to 0, the “interaction data at Target Concentration 100” value was 1 and the “interaction data at Target Concentration 300” value is 4. Moreover, the “interaction data at Target Concentration 1000” value with WWP2^HECT (first column) turned out to be 9. In addition, the “interaction data at Target Concentration 1000” value with WWP2^HECT (second column) is given as 13.
Take “DPAMWSCRYAAWECWVL (DPAMWSCRYAAWECWVL-NH2; linker 7-14 via Phenylene(1,4-NHCOCH2)2; N-terminus assumed; SMILES CSCC[C@H](NC(=O)[C@H](C)NC(=O)[C@@H]1CCCN1C(=O)[C@@H](N)CC(=O)O)C(=O)N[C@@H](Cc1c[nH]c2ccccc12)C(=O)N[C@@H](CO)C(=O)N[C@H]1CSCC(=O)Nc2ccc(cc2)NC(=O)CSC[C@@H](C(=O)N[C@@H](Cc2c[nH]c3ccccc23)C(=O)N[C@H](C(=O)N[C@@H](CC(C)C)C(N)=O)C(C)C)NC(=O)[C@H](CCC(=O)O)NC(=O)[C@H](Cc2c[nH]c3ccccc23)NC(=O)[C@H](C)NC(=O)[C@H](C)NC(=O)[C@H](Cc2ccc(O)cc2)NC(=O)[C@H](CCCNC(=N)N)NC1=O)”: in the experiment with WWP2^HECT, the “interaction data at Target Concentration 10” value was determined as 0, the “interaction data at Target Concentration 30” value stood at 0, the “interaction data at Target Concentration 100” value is on record as 0 and the “interaction data at Target Concentration 300” value came out at 8. Moreover, the “interaction data at Target Concentration 1000” value in the experiment with WWP2^HECT (first column) worked out at 7. Besides, in the experiment with WWP2^HECT (second column), the “interaction data at Target Concentration 1000” value worked out at 28.
In the case of “DPAQDTCRAAADTCAFF (DPAQDTCRAAADTCAFF-NH2; linker 7-14 via Phenylene(1,4-NHCOCH2)2; N-terminus assumed; SMILES C[C@@H]1NC(=O)[C@H](C)NC(=O)[C@H](CCCNC(=N)N)NC(=O)[C@@H](NC(=O)[C@@H](NC(=O)[C@H](CC(=O)O)NC(=O)[C@H](CCC(N)=O)NC(=O)[C@H](C)NC(=O)[C@@H]2CCCN2C(=O)[C@@H](N)CC(=O)O)[C@@H](C)O)CSCC(=O)Nc2ccc(cc2)NC(=O)CSC[C@@H](C(=O)N[C@@H](C)C(=O)N[C@@H](Cc2ccccc2)C(=O)N[C@@H](Cc2ccccc2)C(N)=O)NC(=O)[C@H]([C@@H](C)O)NC(=O)[C@H](CC(=O)O)NC(=O)[C@H](C)NC1=O)”, in the experiment with WWP2^HECT, the “interaction data at Target Concentration 10” value worked out at 8, the “interaction data at Target Concentration 30” value is 159, the “interaction data at Target Concentration 100” value came to 267 and the “interaction data at Target Concentration 300” value was found to be 241. Further, the “interaction data at Target Concentration 1000” value in the experiment with WWP2^HECT (first column) worked out at 232. Moreover, the “interaction data at Target Concentration 1000” value with WWP2^HECT (second column) was 373.
“DPAIHSCYAAAETCQFF (linker 7-14 via Phenylene(1,4-NHCOCH2)2 (inferred))”: in the experiment with WWP2^HECT, the “interaction data at Target Concentration 10” value is given as 43, the “interaction data at Target Concentration 30” value turned out to be 87, the “interaction data at Target Concentration 100” value worked out at 89 and the “interaction data at Target Concentration 300” value is recorded as 139. The “interaction data at Target Concentration 1000” value with WWP2^HECT (first column) was 127. Also, in the experiment with WWP2^HECT (second column), the “interaction data at Target Concentration 1000” value turned out to be 194.
For “PACVSAFFACL (linker 3-10 via Phenylene(1,4-NHCOCH2)2 (inferred))”, in the experiment with CDK2, the “phage screen counts, Target Concentration 10” value is recorded as 0; the “phage screen counts, Target Concentration 30” value worked out at 0; the “phage screen counts, Target Concentration 100” value stood at 0; the “phage screen counts, Target Concentration 300” value was found to be 0. Also, the “phage screen counts, Target Concentration 1000” value with CDK2 (setting [1]) is 151. Also, the “phage screen counts, Target Concentration 1000” value in the experiment with CDK2 (setting [2]) was 19.
Take “MACVDAFFSC (linker 3-10 via Phenylene(1,4-NHCOCH2)2 (inferred))”: in the experiment with CDK2, the “phage screen counts, Target Concentration 10” value turned out to be 0; the “phage screen counts, Target Concentration 30” value amounted to 0; the “phage screen counts, Target Concentration 100” value turned out to be 1; the “phage screen counts, Target Concentration 300” value was 17. Further, the “phage screen counts, Target Concentration 1000” value with CDK2 (setting [1]) was 320. For the same sequence, the “phage screen counts, Target Concentration 1000” value with CDK2 (setting [2]) was 16.
For “DPAWWRCSIAAVDCEMQ (linker 7-14 via Phenylene(1,4-NHCOCH2)2 (inferred))”, in the experiment with CDK2, the “phage screen counts, Target Concentration 10” value turned out to be 0; the “phage screen counts, Target Concentration 30” value was determined as 0; the “phage screen counts, Target Concentration 100” value stood at 0; the “phage screen counts, Target Concentration 300” value was 93. For the same sequence, the “phage screen counts, Target Concentration 1000” value with CDK2 (setting [1]) turned out to be 238. The “phage screen counts, Target Concentration 1000” value with CDK2 (setting [2]) came out at 217.
As for “PCLDAFFYCVT (linker 2-9 via Phenylene(1,4-NHCOCH2)2 (inferred))”, in the experiment with CDK2, the “phage screen counts, Target Concentration 10” value is 0; the “phage screen counts, Target Concentration 30” value turned out to be 0; the “phage screen counts, Target Concentration 100” value was found to be 0; the “phage screen counts, Target Concentration 300” value is 7. Also, the “phage screen counts, Target Concentration 1000” value with CDK2 (setting [1]) amounted to 18. In addition, the “phage screen counts, Target Concentration 1000” value with CDK2 (setting [2]) amounted to 51.
In the case of “DPAWYECVVAAIECHAY (linker 7-14 via Phenylene(1,4-NHCOCH2)2 (inferred))”, in the experiment with CDK2, the “phage screen counts, Target Concentration 10” value came to 0; the “phage screen counts, Target Concentration 30” value is 12; the “phage screen counts, Target Concentration 100” value was determined as 0; the “phage screen counts, Target Concentration 300” value amounted to 286. In the experiment with CDK2 (setting [1]), the “phage screen counts, Target Concentration 1000” value turned out to be 411. Further, the “phage screen counts, Target Concentration 1000” value with CDK2 (setting [2]) is on record as 473.
As for “PCMDAFFSCVW (linker 2-9 via Phenylene(1,4-NHCOCH2)2 (inferred))”, in the experiment with CDK2, the “phage screen counts, Target Concentration 10” value was 0; the “phage screen counts, Target Concentration 30” value is 0; the “phage screen counts, Target Concentration 100” value came out at 1; the “phage screen counts, Target Concentration 300” value amounted to 0. Also, in the experiment with CDK2 (setting [1]), the “phage screen counts, Target Concentration 1000” value is 39. Moreover, the “phage screen counts, Target Concentration 1000” value with CDK2 (setting [2]) is 8.
As for “DPAWWHCSIAALECHTT (linker 7-14 via Phenylene(1,4-NHCOCH2)2 (inferred))”, in the experiment with CDK2, the “phage screen counts, Target Concentration 10” value is 0; the “phage screen counts, Target Concentration 30” value was determined as 18; the “phage screen counts, Target Concentration 100” value is 25; the “phage screen counts, Target Concentration 300” value turned out to be 216. Also, the “phage screen counts, Target Concentration 1000” value in the experiment with CDK2 (setting [1]) was 195. In the experiment with CDK2 (setting [2]), the “phage screen counts, Target Concentration 1000” value amounted to 358.
With “CLSAFFSCTY (linker 1-8 via Phenylene(1,4-NHCOCH2)2 (inferred); not fully specified (C-terminus))”, in the experiment with CDK2, the “phage screen counts, Target Concentration 10” value was 29; the “phage screen counts, Target Concentration 30” value worked out at 0; the “phage screen counts, Target Concentration 100” value was determined as 0; the “phage screen counts, Target Concentration 300” value is on record as 0. Further, the “phage screen counts, Target Concentration 1000” value in the experiment with CDK2 (setting [1]) worked out at 111. Moreover, in the experiment with CDK2 (setting [2]), the “phage screen counts, Target Concentration 1000” value was determined as 330.
For “YECLEAFFNC (linker 3-10 via Phenylene(1,4-NHCOCH2)2 (inferred))”, in the experiment with CDK2, the “phage screen counts, Target Concentration 10” value was 0; the “phage screen counts, Target Concentration 30” value worked out at 0; the “phage screen counts, Target Concentration 100” value is listed as 0; the “phage screen counts, Target Concentration 300” value is reported as 2. In the experiment with CDK2 (setting [1]), the “phage screen counts, Target Concentration 1000” value was found to be 208. For the same sequence, the “phage screen counts, Target Concentration 1000” value with CDK2 (setting [2]) was determined as 193.
Take “DPAWWECIVAALECSDR (linker 7-14 via Phenylene(1,4-NHCOCH2)2 (inferred))”: in the experiment with CDK2, the “phage screen counts, Target Concentration 10” value is 0; the “phage screen counts, Target Concentration 30” value came to 0; the “phage screen counts, Target Concentration 100” value is reported as 0; the “phage screen counts, Target Concentration 300” value is reported as 62. For the same sequence, in the experiment with CDK2 (setting [1]), the “phage screen counts, Target Concentration 1000” value is given as 76. For the same sequence, the “phage screen counts, Target Concentration 1000” value with CDK2 (setting [2]) is listed as 90.
Turning to “DPAWWVCAIAAMDCHEQ (linker 7-14 via Phenylene(1,4-NHCOCH2)2 (inferred))”, in the experiment with CDK2, the “phage screen counts, Target Concentration 10” value came to 0; the “phage screen counts, Target Concentration 30” value was determined as 0; the “phage screen counts, Target Concentration 100” value is given as 0; the “phage screen counts, Target Concentration 300” value is recorded as 139. Also, in the experiment with CDK2 (setting [1]), the “phage screen counts, Target Concentration 1000” value is given as 216. The “phage screen counts, Target Concentration 1000” value in the experiment with CDK2 (setting [2]) turned out to be 422.
Consider “PMACLSAFFTC (linker 4-11 via Phenylene(1,4-NHCOCH2)2 (inferred))”, for which, in the experiment with CDK2, the “phage screen counts, Target Concentration 10” value came out at 0; the “phage screen counts, Target Concentration 30” value amounted to 0; the “phage screen counts, Target Concentration 100” value was found to be 0; the “phage screen counts, Target Concentration 300” value came out at 16. Also, in the experiment with CDK2 (setting [1]), the “phage screen counts, Target Concentration 1000” value was 114. The “phage screen counts, Target Concentration 1000” value with CDK2 (setting [2]) turned out to be 176.
In the case of “DPAWWTCSVAAIQCWDS (linker 7-14 via Phenylene(1,4-NHCOCH2)2 (inferred))”, in the experiment with CDK2, the “phage screen counts, Target Concentration 10” value is 0; the “phage screen counts, Target Concentration 30” value turned out to be 0; the “phage screen counts, Target Concentration 100” value came to 10; the “phage screen counts, Target Concentration 300” value stood at 69. Moreover, the “phage screen counts, Target Concentration 1000” value in the experiment with CDK2 (setting [1]) was 119. For the same sequence, the “phage screen counts, Target Concentration 1000” value with CDK2 (setting [2]) came to 243.
